From the supplement of paper PMC12764529
± gives the half width of the 95% confidence interval.

What was measured:
[1] = folding stability dG unfold from trypsin proteolysis; higher = more stable
Outline: (§1)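 Unfolding free energy was derived, per protease or combined, against a sequence-predicted unfolded-state K50 and a shared folded-state K50, starting from K50 inferred by Bayesian fitting of sequencing counts. Digestion with trypsin and chymotrypsin was carried out on designed mini-proteins under 80 residues without cysteine in a PA-tagged cDNA display construct. Only designs with AlphaFold2 dimer inter-PAE above 15 were kept.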

[2] = folding stability dG unfold from chymotrypsin proteolysis; higher = more stable
Outline: as §1

[3] = folding stability dG unfold (combined trypsin and chymotrypsin); higher = more stable
Outline: as §1

Sequence | folding stability dG unfold [1] | folding stability dG unfold [2] | folding stability dG unfold [3]
SAGGSAGGSMGLNVTYTVNVTHPDGTVETFPFEFDGTPEEAEEFARAIAEAHPDVKVTVTPGASAGGSAGGS [r12_268_TrMRF] | 3.06 ± 0.12 kcal/mol | 3.06 ± 0.037 kcal/mol | 3.05 ± 0.076 kcal/mol
SAGGMTTTTLTLEEFLEKYPEEVVKERTEKPLGPGANLTIVTLTAPGTTITVTSNPAQPDIWTVTTVTSAGG [r13_942_JUSTAS] | 0.75 ± 0.018 kcal/mol | 1.11 ± 0.049 kcal/mol | 0.965 ± 0.051 kcal/mol
SAGKYVTFNFPINIPPGDIKQMLNMIRDIARNLGLKPITDIEIDNIQRDDDYYRIRFEITIKVPPGDLKSAG [r5_575_TrROS] | 2.44 ± 0.18 kcal/mol | 4.29 ± 0.12 kcal/mol | 3.34 ± 0.43 kcal/mol
SAGGSAGMPSPVLLDVTIANPDGTTSTVTAPYASPEVAEAYVRENYPDAEVTYDPATGRVSVNVPSSAGGSA [r15_313_JUSTAS] | 2.31 ± 0.092 kcal/mol | 2.09 ± 0.033 kcal/mol | 2.2 ± 0.054 kcal/mol
SAGKKLLVVVEIRVFDKDGKLVREERLVIEVPEEDEEALRRLLEEARRLAEALLPPGARVEIRVRVLPPSAG [r5_793_TrROS_Hall] | 2.98 ± 0.13 kcal/mol | 3.82 ± 0.11 kcal/mol | 3.6 ± 0.15 kcal/mol
SAGGSAGGMTVTIELPGSTYTVELPSSVKSVSELKVLEDGTLVLTFPSTGTTVTVPIPPPGSHHSAGGSAGG [r6_370_JUSTAS] | 1.03 ± 0.059 kcal/mol | 0.878 ± 0.13 kcal/mol | 1.01 ± 0.11 kcal/mol
SAGGSAGGMKQYIVTVTLKSPDGTEHTIELETESLDEVKEKLKNLPDPNLELVELKVVPKEELASAGGSAGG [r6_297_JUSTAS] | 2.39 ± 0.098 kcal/mol | 2.21 ± 0.035 kcal/mol | 2.25 ± 0.13 kcal/mol
SAGGSAGGSAGVIDKENDRWYITQETPGGEPKTIPIPWDDIPDLPPENVKEVELMPPDDISAGGSAGGSAGG [r11_779_TrROS] | -0.179 ± 0.031 kcal/mol | -0.00556 ± 0.056 kcal/mol | -0.0024 ± 0.1 kcal/mol
SAGGSAGGSAGGNKVTIPIHIPPGDPGNPEKAIEWAEHIAKELQEKNGGKDVDINIMPSPSAGGSAGGSAGG [r7_440_TrROS] | 0.772 ± 0.1 kcal/mol | -0.595 ± 0.079 kcal/mol | 0.174 ± 0.33 kcal/mol
SAGGKEEKVVEIEIKKEKLKKSKDGKVYSAEEIAKKLKKELPEENVEVEIVSYDKEKGVVKIKIKVKSAGGS [r16_284_TrROS_Hall] | 1.51 ± 0.12 kcal/mol | 1.74 ± 0.18 kcal/mol | 1.7 ± 0.36 kcal/mol
SPKEPQKVRIRIRNPENGKPIWEFDIWFPPDGGVKVKIEHPNEKHEYPMPADEALDFLENHPFKIEEIEVSA [r9_470_TrROS] | 0.739 ± 0.18 kcal/mol | 0.301 ± 0.2 kcal/mol | 0.567 ± 0.33 kcal/mol
SAGGPDDMKIIEETTIRFPENGMQFNIRIYKLPDNDVFIEAEMIMPNGKPVGRMEARVPNGKPIEIPFSAGG [r13_573_TrROS] | 0.854 ± 0.04 kcal/mol | 1.64 ± 0.12 kcal/mol | 1.36 ± 0.087 kcal/mol
SAGGLNFEIIEVSPNHIIARFPDAGYIIMAKIKMEWKPKRDPENGKPRYEPKFKIDIHVIPLKPGQPISAGG [r13_322_TrROS] | 3.27 ± 0.09 kcal/mol | 4.66 ± 0.17 kcal/mol | 4.09 ± 0.12 kcal/mol
SMIQVDIKPDAINVTVTKEGKSVTVPMDLEELEELLKKGVEKVEIKSPDPEVLEKIKELVEKAGVPIELKSA [r9_810_JUSTAS] | 1.09 ± 0.1 kcal/mol | 0.686 ± 0.06 kcal/mol | 1.02 ± 0.25 kcal/mol
SAGGSAGGSNFRIIEFDIKLKIPVMKMEPDPDGKPKMEMQPVKIPIKVTIFVFGNGIFIMITFSAGGSAGGS [r20_58_TrROS] | 3.42 ± 0.24 kcal/mol | 5.29 ± 0.16 kcal/mol | 5.11 ± 0.29 kcal/mol
SAGGSAGGSAGGSMKVILDKKNNELYILLKDENGKLLLAKITLLPNGEIKIEVYDLKDLSAGGSAGGSAGGS [r4_434_TrROS_Hall] | 2.27 ± 0.066 kcal/mol | 3.98 ± 0.1 kcal/mol | 3.56 ± 0.13 kcal/mol
SAGGSAGGSAGGPTITSSKIVAEYPGGKVIEVTIEEPLPTPSTVTKTVTLFIPEGSVLLSAGGSAGGSAGGS [r10_1183_JUSTAS] | 0.536 ± 0.087 kcal/mol | 0.402 ± 0.15 kcal/mol | 0.361 ± 0.34 kcal/mol
SAPKVISATVTYNPATGKVTVTVTLEDADGPVTVTYTFDGDGNVPVTVYDTRTTKPLGTITVPADQLNLSAG [r14_608_TrMRF] | 1.06 ± 0.08 kcal/mol | 1.21 ± 0.23 kcal/mol | 1.14 ± 0.18 kcal/mol
SAGGSAGGSMEENKPVVTLTTVEIYIESEVDPSLGKPLNPKKITVTLTTTVPPDGSTSTSTLFSAGGSAGGS [r12_438_JUSTAS] | 1.11 ± 0.17 kcal/mol | 1.67 ± 0.17 kcal/mol | 1.45 ± 0.19 kcal/mol
SAGGSAGGSMTIKITLPEEGEKVKITIFVNGEEKEIEIEPGEEITIELPENVKNAIIIIEKEPSAGGSAGGS [r12_729_TrROS_Hall] | 2.49 ± 0.1 kcal/mol | 2.48 ± 0.058 kcal/mol | 2.54 ± 0.11 kcal/mol
SAGGSAGGMPPELSEEEVVRRAVERAVRELGVPLEELPPDWRVDARVERVGDEWLVEVDIELPASAGGSAGG [r6_740_TrMRF] | 1.33 ± 0.037 kcal/mol | 1.68 ± 0.074 kcal/mol | 1.57 ± 0.083 kcal/mol
